Assay results as given in the RNAGym collection of RNA variant scans (doi:10.1073/pnas.2313332121).
Variants at the floor of the assay were thinned out.

B1: TPR 5TU (parent)
chain: GGAUCUUCUCGAUCUAACAAAAAAGACAAAUCUGCCACAAAGCUUGAGAGCAUCUUCGGAUGCAGAGGCGGCAGCCUUCGGUGGCGCGAUAGCGCCAACGUUCUCAACUAUGACACGCAAAACGCGUGCUCCGUUGAAUGGAGUUUAUCAUG

Variants of: B1
Assay: polymerase ribozyme fitness, log enrichment relative to wild type (log ratio); higher = more active; in vitro selection for triplet polymerase activity
Summary of the method: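 Libraries of mutants in each subunit of a heterodimeric triplet polymerase ribozyme were generated by PCR and transcribed. In triplicate, each went through one in vitro selection round: annealing with biotinylated primer, partner subunit and triplets; frozen incubation at −7 °C; gel excision of extended constructs; streptavidin-bead capture; RT-PCR. Fitness, taken from Illumina sequencing of input and output libraries, is the logarithm of a genotype's enrichment over wild-type enrichment, averaged across replicates with inverse-variance weights. The logarithm is base 2, and genotypes needed ≥10 input reads and ≥1 read per output to be kept.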

Going from GGAUCUUCUCGAUCUAACAAAAAAGACAAAUCUGCCACAAAGCUUGAGAGCAUGGUCGGAUGCAGAGGCGGCAGCCUUCGGUGGCGCGAUAGCGCCAACGUUCUCAACUAUGACACGCAAAACGCGUGCUCCGUUGAAUGGAGUUUAUCAUG [C54G U55G] to GGAUCUUCUCGAUCUAACAAAAAAGACAAAUCUGCCACAAAGCUUGAGAGCAUGUUCGGAUGCAGAGGCGGCAGCCUUCGGGGGCGCGAUAGCGCCAACGUUCUCAACUAUGACACGCAAAACGCGUGCUCCGUUGAAUGGAGUUUAUCAUG [C54G U82G], the “polymerase ribozyme fitness (log ratio)” value rises from no more than -4.2 to -0.687.

Going from GGAUCUUCUCGAUCUAACAAAAAAGACAAAUCUGCCACAAAGCUUGAGAGCAUGUUCGGAUGCAGAGGCGGCAGCCUUCGGAGGCGCGAUAGCGCCAACGUUCUCAACUAUGACACGCAAAACGCGUGCUCCGUUGAAUGGAGUUUAUCAUG [C54G U82A] to GGAUCUUCUCGAUCUAACAAAAAAGACAAAUCUGCCACAAAGCUUGAGAGCAUUUUCGGAUGCCGAGGCGGCAGCCUUCGGUGGCGCGAGAGCGCCAACGUUCUCAACUAUGACACGCAAAACGCGUGCUCCGUUGAAGAGAGUUUAUCAUG [C54U A64C U90G U139G G140A], the “polymerase ribozyme fitness (log ratio)” value falls from -1.98 to no more than -4.2.

GGAUCUUCUCGAUCUAACAAAAAAGACAAAUCUGCCACAAAGCUUGAGAGCAUUUUAGGAUGCAGAGGCGGCAGCCUUCGGUGGCGCGAUAGCGCCAACGUUCUCAACUAUGACACGCAAAACGCGUGCUCCGUUGAAUGGAGUUUAUCAUG [C54U C57A] and GGAUCUUCUCGAUCUAACAAAAAAGACAAAUCUGCCACAAAGCUUGAGAGCAUUUUCGGAUGCAGAGGCGGCAGCCUUCGGUGGCGCGAUAGCGCCAACGUUCUCAACUAUGACACGCAAAACGCGUGCUCCGUUGAAUGGAGUUUAUCAUG [C54U] are within 0.2 log units of each other in “polymerase ribozyme fitness (log ratio)” value: -0.253 for the first, -0.314 for the second.

Going from GGAUCUUCUCGAUCUAACAAAAAAGACAAAUCUGCCACAAAGCUUGAGAGCAUUUUCGGUUGCAGAGGCGGCAGCCUUCGGUGGCGUGAUAGCUCCAACGGUCUCAACCAUGACAUGUAAAACGCGUGCUCCGUUGAAUGGAGUUUAUCAUC [C54U A60U C87U G94U U101G U109C C116U C118U G152C] to GGAUCUUCUCGAUCUAACAAAAAAGACAAAUCUGCCACAAAGCUUGAGAGCAUGUUCGGAUGCAGAGGCGGCAGCCUUCGGUGGCGCGAUAGCGCCAACGGUCUCAACUAUGACACGUAAAACGCGUGCUCCGUUGAAUGGAGUUUAUCAUG [C54G U101G C118U], the “polymerase ribozyme fitness (log ratio)” value rises from no more than -4.2 to -2.4.

Compared with GGAUCUUCUCGAUCUAACAAAAAAGACAAAUCUGCCACAAAGCUUGAGAGCAUUUUCGGAUGCUGAGGCGGCAGCCUUCGGUAGAGCGAUAGCGCCAACGUUCUCAACUAUGACACGCAAAACGCGUGCUCCGUUGAAUGGAGUUUAUCAUG [C54U A64U G83A C85A], GGAUCUUCUCGAUCUAACAAAAAAGACAAAUCUGCCACAAAGCUUGAGAGCAUUUUCGGAUGCAGAGGCGGCAGCCUUCGGUGGCGCGAUAGCGCCAACGUUCUCGACUAUGACACGCAAAACGCGUGCUCCGUUGAAUGGAGUUUAUCAUG [C54U A106G] is higher in “polymerase ribozyme fitness (log ratio)” value: no more than -4.2 for the first, -0.0717 for the second.

Going from GGAUCUUCUCGAUCUAACAAAAAAGACAAAUCUGCCACAAAGCUUGAGAGCAUUUUCGGAUGCAGAGGCGGCAGCCUUCGGUGGCGCGGUAGCGACAACGUUCUCAACUAUGACACGCAAAACGCGUGCUCCGUUGAAUGGAGUUUAGCAUG [C54U A89G C95A U148G] to GGAUCUUCUCGAUCUAACAAAAAAGACAAAUCUGCCACAAAGCUUGAGAGCAUUUUCGGAUGCAGAGGCGGCAGCCUUCGGUGGCGCGAUAGCGCCAACGUUCUCAACUAUGACACGCAAUACGCGUGCUCCGUUGAAUGGAGUUUAUCAUG [C54U A121U], the “polymerase ribozyme fitness (log ratio)” value rises from -4.18 to 0.0158.

GGAUCUUCUCGAUCUAACAAAAAAGACAAAUCUGCCACAAAGCUUGAGAGCAUUUUCGGAUGCAGAGGCGGCAGCCUUCGGUGGCGCGAUCGCGCCAACGUUCUCAACUAUGACACGCAAAACGCGUGCUCCGUUGAAUGGAGUUUAUCAUG [C54U A91C] and GGAUCUUCUCGAUCUAACAAAAAAGACAAAUCUGCCACAAAGCUUGAGAGCAUUUUCGGAUGCAGAGGCGGCAGCCUUCGGUGGCGCGAUUGCGCCAACGUUCUCAACUAUGACACGCAAAACGCGUGCUCCGUUGAAUGGAGUUUAUCAUG [C54U A91U] cannot be ordered by “polymerase ribozyme fitness (log ratio)” value: no more than -4.2 for the first, no more than -4.2 for the second.

Going from GGAUCUUCUCGAUCUAACAAAAAAGACAAAUCUGCCACAAAGCUUGAGAGCAUGUUCGGAUGCAGAGGCGGCAGCCUUCGGUGGCGCGAUAGCGCCAACGUCCUCAACUAUGACACGCAAAACGCGUGCUCCGUUGAAUGGAGAUUAUCAUG [C54G U102C U144A] to GGAUCUUCUCGAUCUAACAAAAAAGACAAAUCUGCCACAAAGCUUGAGAGCAUUUUCGGGUGCAGAGGCGGCAGCCUUCGGUGGCGCGAUAGCGUCAACGUUCUCAACUAUGACACGCAAAACGCGUGCUCCGUUGAAUGGAGUUUAUCAUG [C54U A60G C95U], the “polymerase ribozyme fitness (log ratio)” value rises from -3.91 to -0.803.

First: GGAUCUUCUCGAUCUAACAAAAAAGACAAAUCUGCCACAAAGCUUGAGAGCAUUUUCGGAUGCAGAGGCGGCAGCCUUCGGUGGCGCGAUAGCGCCAACGUUCUCAACUAUGACACGCAAAACGCGUGCUCCGUUGAGUGGAGUUUAUCAUG [C54U A138G]
Second: GGAUCUUCUCGAUCUAACAAAAAAGACAAAUCUGCCACAAAGCUUGAGAGCAUGUUCGGACGCAGAGGCGGCAGCCUUCGGUGUCGUAAUAGCGCCAACGUUCUCAACUAUGACACGCUAAACGCGUGCUCCGUUGAAUGGAGUUUAUCAUG [C54G U61C G84U C87U G88A A119U]
The “polymerase ribozyme fitness (log ratio)” value of the first is higher: -3.19 for the first, no more than -4.2 for the second.

In the case of GGAUCUUCUCGAUCUAACAAAAAAGACAAAUCUGCCACAAAGCUUGAGAGCAUUUUGGGAUGCAGAGGCGGCAGCCUUCGGUGUCGCGAUAGCGCAAACGUUCUCAACUAUGACACGCAAAACGCGUGCUCCGUUGAAUGGAGUUUAUCAUG [C54U C57G G84U C96A], the “polymerase ribozyme fitness (log ratio)” value is reported as -3.23.
